# Laboratory results published in US6133008.
# System: TfiI-s (N-terminally shortened TfiI) lacks first 12 amino acids; translation presumed to start at TTG codon (Thermus filiformis)
# Assay: cleavage_in_vitro
# Conditions: cell lysate; lambda DNA substrate
substance,measurement,value
lambda DNA,activity (units/g wet cells),100000
